Data published in the nanobody polyreactivity screen of Harvey et al. (2022).

Test: yeast display, Sf9 membrane polyspecificity reagent, FACS + sequencing; frameworks hold sequencing errors
Outline: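 A synthetic nanobody library was expressed on Saccharomyces cerevisiae BJ5465 by galactose induction for 36–48 hours. The library was stained for 1 hour at 4 °C with 10% biotinylated, detergent-solubilized Sf9 membrane reagent and enriched with streptavidin microbeads before FACS. Low and high (top ~1%) gates were set on anti-HA fluorescence for expression and streptavidin fluorescence for reagent binding, and each polyreactivity label reflects the gate of origin.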

Sequence | polyreactivity (PSR sort gate)
PVQLVESGGGLVQAGGSLRLSCAASGRTFLVYSMGWYRQAPGKERELVAAISNGGSTNYADSVKGRFTISRDNAKKTVYLQMNSLKPEDTALYDCATRIHKWYYYWGQGTQVTVSS | high polyreactivity
PVQLVESGGGLVQAGGSLRLSCAASGSIFAVNALGWSRQAPGKERELVAAITSGGNTYYADSVKGRFTISRDNAKNTVYLQMNSLKPEDTAVYDCATVFSVQGWYFGMNYWGQGTQVTVSS | low polyreactivity
PVQLVESGGGLVQAGGSLRLSCAASGSIFGYYAMGWYRQAPGKERELVAAISSSGASTYYADSVKGRFTISRDNAKNTVSLQMNSLKPEDTAVSYCIAARRYPTRGGYWGQGTQVTVSS | high polyreactivity
PVQLVESGGGLVQAGGSLRLSCAASGSIFGYYAMGWYRQAPGKERELVAAITWSGDSTYYADSVKGRFTISRDNAKNTVYLQMNSLKPEDTAVYYCAARQFVHTRYFSFGYWGQGTQVTVSS | low polyreactivity
PVQLVESGGGLVQAGGSLRLSCAASGSTFAYNDLGWYRQAPGKERELVADIRSGGNTNYADSVKGRFTISRDNAKNTVYLQMNSLKPEDTAVYYCATDGYRIDVFHPDYRYDYWGQGTQETVSS | low polyreactivity
PVQLVESGGGLVQAGGSLRLSCSSSGRIFASNAMGWYRQPPGKDRELVAAIDQGGGSTYYADSVKGRFTISRDNAKITVYLQMNSLKPEDTAVYYCAADYITAYPRLYNYWGLGTQVTVSS | low polyreactivity
QDHHVDSGGGLVQAGGILRLSCAASGSIIDYYPMGWYRQPPGKERELVARIRRRSSSTFYADSVKGRFTISRDNEKNTDYLQMNSLKPEDTAVYYCAADSYAWSTGGIFDYWGQGTQVTVSS | high polyreactivity
QDHLVESGGGLVQAGGSLRLSCAASGFIFRGNAMGWYRQPPGKERELVAAISRRGGTTYYADCVKGRFTISRDNAKNTDYLQMNSLKPEDTAVYYCAAYSPLSSGMDSWGQGTQVTVSS | high polyreactivity
QDHLVESGGGLVQAGGSLRLSCAASGSIFGLYAMGWYRQSPGKERELVAAISFSGDTYYADSVKGRFTISRDNAKNTVYLQMNSLKPEDTAVYYCAAEDWYEYDYWGQGTQVTVSS | high polyreactivity
QDHLVESGGGLVQAGGSLRLSCAASGSIFYRYAMGWYRQAPWKERELVAAISRSGGTTYYADSVKGRFTISRDNAKNTVYLQMNSLKPEDTAVYYCAARVFHPYSTDPYYYWGQGTQVTVSS | high polyreactivity
QDHLVESGGGLVQAGGSLRLSCAASGSTFGKNTMGWYRQAPGKERELVAAISRGVSTYYADSVKGSFTISRDNAKNTVYLQMNSLKPEDTAVYYCAAQEAYRWYGYYYWGQGTQVTVSS | high polyreactivity
QDHLVESGGGLVQAGGSLRLTCAASGSIFISYAMGWYRQAPGKERELVAAISIRGTRTYYADSVKGRFTISRDNAKNTVSLQMNSLKPEDTAVYFCAADASYTEGMDYWGQGTQVTVSS | high polyreactivity
QDHLVESGRGLVQAGGSLRLSCAASGSIFPSYAMVWNRQAPGKERDLVDSITTSGGSTYYADSVKGRFTISRDNAKNTVYLQMNSLKPEDTAVYYCNARRYYYSWGREGGYWGQGTQVTVSS | low polyreactivity
QDKLVESGGALVQAGGSLRISCAASGNIFSYYAMGWNRQAPGKEMDLVAAISRRGTNTYYADSVKGRFTISRDKAKNTVYLQMNSLKPEDTAVYYCASYGPYQSSYHYDYWGQGTQVTVSS | high polyreactivity
QDLHVESGGGVVQAGGSLRVSCAASGRTFISYAMGWSRQAPGKERELVATITRDGRTNYADSVKGRFTFSRDNAKNTVYLQMNSLNAEDTAVYYCNADSRYRYDYWGQGSQVTVSS | low polyreactivity
QDLLVESGGGLVQAGGRLRLSCAASGSTFRYYAMGWYRQAPGKERELVAAITNSCGSTNYADSVKGRFTISRDNAKNTVYLQMNSLKPEDTAVYYCNANTWRYFTMGYWGHGTQVTVSS | high polyreactivity
